Test results taken from patent US6020374A, “Biologically active synthetic dye compounds” (priority 1998, dated 2000).

Columns and labels:
[1] = system: IR, IRS-1 and the 85-kDa regulatory subunit of PI3-kinase; assay: In vivo tyrosine phosphorylation of the IR cascade in rat liver; settings: Sprague-Dawley male rats, portal vein injection, EB 20 mg/rat, insulin 1 u/rat
Procedure: A--Immunoblot analysis. Rat liver extracts were subjected to immunoprecipitation and blotting with the indicated antibodies, as described in the legend to FIG. 9A.
(§1) EB (20 mg/rat) or insulin (1 u/rat) was injected into about 120 g weighing Sprague-Dawley male rats, via the portal vein. Control rats were injected with saline (SAL) alone. The rats were killed and the livers excised and frozen in liquid nitrogen at the indicated times.

PI3-kinase = assay: In vivo PI3-kinase activity in rat liver; settings: Sprague-Dawley male rats, portal vein, 5 mins. after injection, EB 20 mg/rat, insulin 1 u/rat
Procedure: B--Induction of PI3-kinase. PI3-kinase activity, 5 mins. after injection was assayed as described in FIG. 9C. The results are representative of 2 to 4 independent experiments.
as §1

3T3 L1 adipocytes [2] = assay: 2-deoxyglucose uptake in 3T3 L1 adipocytes; type: cell-based; settings: 20 mins., EB, ATA 200 μg/ml, insulin 600 ng/ml
Procedure: (§2) FIG. 11 is the metabolic effects in 3T3 L1 adipocytes: Fully differentiated 3T3 L1 adipocytes were incubated with EB, ATA or fuchsin (FUCH) each at 200 μg/ml, or with 600 ng/ml of insulin for 20 mins. (A, B, C) or 5 mins. (D). CON indicates no additive.
A--2-deoxyglucose uptake. Hexose uptake was measured for 10 mins. using 50 μM 2-deoxy-(^3 H) glucose (1 μCi/ml). Non-specific uptake was determined in the presence of cytochalasin B (50 μM).

IRS-1 = IRS-1 tyrosine phosphorylation and association with p85 in FaO cells; type: cell-based, rat; settings: 5 mins., EB 200 μg/ml, insulin 600 ng/ml
Procedure: (§3) FIG. 9 is the tyrosine phosphorylation of the IR cascade in Fao cells: A--Immunoblot analysis: Fao cells were deprived of serum for 20 hours, then incubated with EB, ATA, at 200 μg/ml or insulin at 600 ng/ml for 5 mins. Cell extracts were subjected to immunoprecipitation with antibodies to: IR β-subunit (αIR), IRS-1 (αIRS-1) and to IRS-2 (αIRS-2). The immunoprecipitates and total cell extracts were analyzed by SDS-PAGE. Proteins were transferred to nitrocellulose papers, and phosphotyrosine containing proteins were probed with anti-phosphotyrosine antibodies (αP-Tyr), antibody to the 85-kDa subunit of PI3-kinase (αp85) and antibodies to active MAPK (α active MAPK). The immunoblots were visualized by ECL (Amersham).
(§4) MCF-7 cells were grown in 35 or 100 mm dishes in DMEM with 5% bovine fetal serum. Rat hepato FaO cells were grown in RPMI 1640 medium supplemented with 10% fetal calf serum. Subconfluent monolayers of MCF-7 cells or FaO cells, were deprived of serum for 20 hours prior to each experiment. The medium was removed, and cells were incubated at 37° C. under the conditions as indicated for each experiment. […]
(§5) Nitrocellulose blots of proteins were incubated with the antibodies, and proteins were detected by enhanced chemiluminescence using horseradish peroxidase-labeled protein A, horseradish peroxidase-labeled anti rabbit IgG or horseradish peroxidase-labeled anti-mouse IgG. […]

MAPKs 1 and 2 = assay: Activation of MAPKs in FaO cells; type: cell-based, rat; settings: 5 mins., EB 200 μg/ml, insulin 600 ng/ml
Procedure: as §3
Nitrocellulose blots of proteins were incubated with the antibodies, and proteins were detected by enhanced chemiluminescence using horseradish peroxidase-labeled protein A, horseradish peroxidase-labeled anti rabbit IgG or horseradish peroxidase-labeled anti-mouse IgG.
In the rat hepatoma cell line FaO, EB and insulin, enhanced IRS-1 and IRS-2 tyrosine phosphorylation and their association with the 85-kDa regulatory subunit of the PI-kinase (FIG. 9A). PI3-kinase activity increases following its association with IRS-1 and IRS-2 (FIG. 9C). MAPKs 1 and 2 were activated by EB and insulin (FIG. 9A).

IRS-2 = IRS-2 tyrosine phosphorylation and association with p85 in FaO cells; type: cell-based, rat; settings: 5 mins., EB 200 μg/ml, insulin 600 ng/ml
Procedure: as §3, §4, §5

3T3 L1 adipocytes [3] = assay: Glycogen synthesis in 3T3 L1 adipocytes; type: cell-based; settings: 20 mins., EB, ATA 200 μg/ml, insulin 600 ng/ml
Procedure: as §2
B--Glycogen synthesis. Cells were incubated with (^14 C)-glucose for 10 mins. Radioactivity was determined in the precipitated glycogen fraction.

3T3 L1 adipocytes [4] = assay: Lipogenesis in 3T3 L1 adipocytes; type: cell-based; settings: 20 mins., EB, ATA 200 μg/ml, insulin 600 ng/ml
Procedure: as §2
C--Lipogenesis. Cells were incubated with 5 mM(U-^14 C) glucose (1 μCi/ml) for 60 mins. Radioactivity was determined in the cellular lipid fraction.

For insulin: The hormone insulin, the “Tyrosine phosphorylation of IR, IRS-1 and 85-kDa subunit of PI3-kinase in liver” value [1] was “phosphorylated tyrosines of IR, IRS-1 and the 85-kDa of the regulatory subunit of PI3-kinase”, the “PI3-kinase activity in liver” value (PI3-kinase) was “increased” and the Glucose uptake (3T3 L1 adipocytes [2]) was “increase glucose uptake”. The “IRS-1 tyrosine phosphorylation and association with the 85-kDa regulatory subunit of PI-kinase” value (IRS-1) was “enhanced”, the “Activation of MAPKs 1 and 2” value (MAPKs 1 and 2) was “activated” and the “IRS-2 tyrosine phosphorylation and association with the 85-kDa regulatory subunit of PI-kinase” value (IRS-2) was “enhanced”. The Glycogen synthesis (3T3 L1 adipocytes [3]) was “increase” and the Lipogenesis (3T3 L1 adipocytes [4]) was “increase”.
